From the supplement of paper PMC12338614
± gives the uncertainty stated by the source.

B1: library; numbered along this chain (parent)
chain: MEVVDPQQLGMFTEGELMSVGMDTFIHRIDSTEVIYQPRRKRAKLIGKYLMGDLLGEGSYGKVKEVLDSETLCRRAVKILKKKKLRRIPNGEANVKKEIQLLRRLRHKNVIQLVDVLYNEEKQKMYMVMEYCVCGMQEMLDSVPEKRFPVCQAHGYFCQLIDGLEYLHSQGIVHKDIKPGNLLLTTGGTLKISDLGVAEALHPFAADDTCRTSQGSPAFQPPEIANGLDTFSGFKVDIWSAGVTLYNITTGLYPFEGDNIYKLFENIGKGSYAIPGDCGPPLSDLLKGMLEYEPAKRFSIRQIRQHSWFRKKHPPAEAPVPIPPSPDTKDRWRSMTVVPYLEDLHGADEDEDLFDIEDDIIYTQDFTVPGQVPEEEASHNGQRRGLPKAVCMNGTEAAQLSTKSRAEGRAPNPARKACSASSKIRRLSACKQQ

Variants of: B1
Assay: STK11 functional score (HeLa growth suppression), rescaled enrichment; synonymous median = 1, nonsense median = 0 (normalised score)
Settings: with HeLa; variant type: missense
How it was run: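 In HeLa, Bxb1 integrated POPCode codon-randomised libraries of codon-optimised STK11 at an AAVS1 landing pad; three regions were each transfected three times. Integrants, marked as BFP-negative and mCherry-positive, were FACS-sorted 4–5 days after electroporation and expanded for about two weeks before tiled gDNA amplicons were sequenced on NextSeq (~2 million reads per tile). Each functional score is a post/pre-selection log ratio corrected to wild type, rescaled to the synonymous and nonsense medians, and merged across codons and replicate transfections, with error estimated by bootstrapping.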

Variant	STK11 functional score
MEVVDPQQLGMFTEGELMSVGMDTFIHRIDSTEVIYQPRRKRAKLIGKYLMGDLLGEGSYGKVKEVLDSETLCRRAVKILKKKKLRRIPNGEANVKKEIQLLRRLRRKNVIQLVDVLYNEEKQKMYMVMEYCVCGMQEMLDSVPEKRFPVCQAHGYFCQLIDGLEYLHSQGIVHKDIKPGNLLLTTGGTLKISDLGVAEALHPFAADDTCRTSQGSPAFQPPEIANGLDTFSGFKVDIWSAGVTLYNITTGLYPFEGDNIYKLFENIGKGSYAIPGDCGPPLSDLLKGMLEYEPAKRFSIRQIRQHSWFRKKHPPAEAPVPIPPSPDTKDRWRSMTVVPYLEDLHGADEDEDLFDIEDDIIYTQDFTVPGQVPEEEASHNGQRRGLPKAVCMNGTEAAQLSTKSRAEGRAPNPARKACSASSKIRRLSACKQQ [H107R]	0.205 ± 0.11
MEVVDPQQLGMFTEGELMSVGMDTFIHRIDSTEVIYQPRRKRAKLIGKYLMGDLLGEGSYGKVKEVLDSETLCRRAVKILKKKKLRRIPNGEANVKKEIQLLRRLRHKNVIQLVDVLYNEEKQKMYMVMEYCVCGMQEMLDSVPEKRFPVCQAHGYFCQLIDGLEYLHSQGIVHKDIKPGNLLLTTGGTLKISDLGVAEALHPFRADDTCRTSQGSPAFQPPEIANGLDTFSGFKVDIWSAGVTLYNITTGLYPFEGDNIYKLFENIGKGSYAIPGDCGPPLSDLLKGMLEYEPAKRFSIRQIRQHSWFRKKHPPAEAPVPIPPSPDTKDRWRSMTVVPYLEDLHGADEDEDLFDIEDDIIYTQDFTVPGQVPEEEASHNGQRRGLPKAVCMNGTEAAQLSTKSRAEGRAPNPARKACSASSKIRRLSACKQQ [A205R]	1.23 ± 0.32
MEVVDPQQLGMFTEGELMSVGMDTFIHRIDSTEVIYQPRRKRAKLIGKYLMGDLLGEGSYGKVKEVLDSETLCRRAVKILKKKKLRRIPNGEANVKKEIQLLRRLRHKNVIQLVDVLYNEEKQKMYMVMEYCVCGMQEMLDSVPEKRFPVCQAHGYFCQLIDGLEYLHSQGIVHKDIKPGNSLLTTGGTLKISDLGVAEALHPFAADDTCRTSQGSPAFQPPEIANGLDTFSGFKVDIWSAGVTLYNITTGLYPFEGDNIYKLFENIGKGSYAIPGDCGPPLSDLLKGMLEYEPAKRFSIRQIRQHSWFRKKHPPAEAPVPIPPSPDTKDRWRSMTVVPYLEDLHGADEDEDLFDIEDDIIYTQDFTVPGQVPEEEASHNGQRRGLPKAVCMNGTEAAQLSTKSRAEGRAPNPARKACSASSKIRRLSACKQQ [L182S]	0.561 ± 0.14
MEVVDPQQLGMFTEGELMSVGMDTFIHRIDSTEVIYQPRRKRAKLIGKYLMGDLLGEGSYGKVKEVLDSETLCRRAVKILKKKKLRRIPNGEANVKKEIQLLRRLRHKNVIQLVDVLYNEEKQKMYMVMEYCVCGMQEMLDSVPEKRFPVCQAHGYFCQLIDGLEYLHSQGIVHKDIKPGNLLLTTGGTLKISDLGVAEALHPFAADDTCRTSQGSPAFQPPEIANGLDTFSGFKVDIWSAGVTLYNITTGLYPFEGDNIYKLFENIGKGSYAIPGDCGPPLSDLLKGMLEYEPAKRFSIRQIRQHSWFRKKHPPAEAPVPIPPSPDTKDRWRSMTVVPYLIDLHGADEDEDLFDIEDDIIYTQDFTVPGQVPEEEASHNGQRRGLPKAVCMNGTEAAQLSTKSRAEGRAPNPARKACSASSKIRRLSACKQQ [E342I]	1.42 ± 0.26
MEVVDPQQLGMFTEGELMSVGMDTFIHRIDSTEVIYQPRRKRAKLIGKYLMGDLLGEGSYGKVKEVLDSETLCRRAVKILKKKKLRRIPNGEANVKKEIQLLRRLRHKNVIQLVDVLYNEEKQKMYMVMEYCVCGMQEMLDSVPEKRFPVCQAHGYFCQLIDGLEYLHSQGIVHKDIKPGNLLLTTGGTLKISDLGVAEALHPFAADDTCRTSQGSPAFQPPEIANGLDTFSGFKVDIWSAGVTLYNITTGLYPFEGDNIYKLFENIGKGSYAIPGDCGPPLSDLLKGMLEYEPAKRFSIRQIRQHSWFRKKGPPAEAPVPIPPSPDTKDRWRSMTVVPYLEDLHGADEDEDLFDIEDDIIYTQDFTVPGQVPEEEASHNGQRRGLPKAVCMNGTEAAQLSTKSRAEGRAPNPARKACSASSKIRRLSACKQQ [H313G]	1.13 ± 0.29
MEVVDPQQLGMFTEGELMSVGMDTFIHRIDSTEVIYQPRRKRAKLIGKYLMGDLLGEGSYGKVKEVLDSETLCRRAVKILKKKKLRRIPNGEANVKKEIQLLRRLRHKNVIQLVDVLYNEEKQKMYMVMEYCVCGMQEMLDSVPEKRFPVCQAHGYFCQLIDGLEYLHSQGIVHKDIKPGNLLLTTGGTMKISDLGVAEALHPFAADDTCRTSQGSPAFQPPEIANGLDTFSGFKVDIWSAGVTLYNITTGLYPFEGDNIYKLFENIGKGSYAIPGDCGPPLSDLLKGMLEYEPAKRFSIRQIRQHSWFRKKHPPAEAPVPIPPSPDTKDRWRSMTVVPYLEDLHGADEDEDLFDIEDDIIYTQDFTVPGQVPEEEASHNGQRRGLPKAVCMNGTEAAQLSTKSRAEGRAPNPARKACSASSKIRRLSACKQQ [L190M]	1.21 ± 0.18
MEVVDPQQLGMFTEGELMSVGMDTFIHRIDSTEVIYQPRRKRAKLIGKYLMGDLLGEGSYGKVKEVLDSETLCRRAVKILKKKKLRRIPNGEANVKKEIQLLRRLRHKNVIQLVDVLYNEEKQKMYMVMEYCVCGMQEMLDSVPEKRFPVCQAHGYFCQLIDGLEYLHSQGIVHKDIKPGNLLLTTGGTLKISDLGVAEALHPFAADDTCRTSQGSPAFQPPEIANGLDTFSGFKVDIWSAGVTLYNITTGLYPFEGDNIYKLFENIGKGSYAIPGDCGPPLSDLLKGMLEYTPAKRFSIRQIRQHSWFRKKHPPAEAPVPIPPSPDTKDRWRSMTVVPYLEDLHGADEDEDLFDIEDDIIYTQDFTVPGQVPEEEASHNGQRRGLPKAVCMNGTEAAQLSTKSRAEGRAPNPARKACSASSKIRRLSACKQQ [E293T]	1.3 ± 0.31
MEVVDPQQLGMFTEGELMSVGMDTFIHRIDSTEVIYQPRRKRAKLIGKYLMGDLLGEGSYGKVKEVLDSETLCRRAVKILKKKKLRRIPNGEANVKKEIQLLRRLRHKNVIQLVDNLYNEEKQKMYMVMEYCVCGMQEMLDSVPEKRFPVCQAHGYFCQLIDGLEYLHSQGIVHKDIKPGNLLLTTGGTLKISDLGVAEALHPFAADDTCRTSQGSPAFQPPEIANGLDTFSGFKVDIWSAGVTLYNITTGLYPFEGDNIYKLFENIGKGSYAIPGDCGPPLSDLLKGMLEYEPAKRFSIRQIRQHSWFRKKHPPAEAPVPIPPSPDTKDRWRSMTVVPYLEDLHGADEDEDLFDIEDDIIYTQDFTVPGQVPEEEASHNGQRRGLPKAVCMNGTEAAQLSTKSRAEGRAPNPARKACSASSKIRRLSACKQQ [V116N]	0.962 ± 0.81
MEVVDPQQLGMFTEGELMSVGMDTFIHRIDSTEVIYQPRRKRAKLIGKYLMGDLLGEGSYGKVKEVLDSETLCRRAVKILKKKKLRRIPNGEANVKKEIQLLRRLRHKNVIQLVDVLYNEEKQKMYMVMEYCVCGMQEMLDSVPEKRFPVCQAHGYFCQLIDGLEYLHSQGIVHKDIKPGNLLLTTGGTLKISDLGVAEALHPFAADDTCRTSQGSPAFQPPEIANGLDTFSGFKVDIWSAGVTLYNITTGLYPFEGDNIYKLFENIGKGSYAIPGDCGPPLSDLLKGMLEYEPAKRFSIRQIRQHSWFRKKHPPAEAPVPIPPSPDTKDRWRSMTVVPYLEDLHGADEDEDLFDIEDDIIYTQDFTVPGQVPEEEASHNGQRRGLPKAVCMNGTEAAQLSTKSRAEGRAPNPARKAESASSKIRRLSACKQQ [C418E]	1.58 ± 0.14
MEVVDPQQLGMFTEGELMSVGMDTFIHRIDSTEVIYQPRRKRAKLIGKYLMGDLLGEGSYGKVKEVLDSETLCRRAVKILKKKKLRRIPNGEANVKKEIQLLRRLRHKNVIQLVDVLYNEEKQKMYMVMEYCVCGMQEMLDSVPEKRFPVCQAHGYFCQLIDGLEYLHSQGIVHKDIKPGNLLLTTGGTYKISDLGVAEALHPFAADDTCRTSQGSPAFQPPEIANGLDTFSGFKVDIWSAGVTLYNITTGLYPFEGDNIYKLFENIGKGSYAIPGDCGPPLSDLLKGMLEYEPAKRFSIRQIRQHSWFRKKHPPAEAPVPIPPSPDTKDRWRSMTVVPYLEDLHGADEDEDLFDIEDDIIYTQDFTVPGQVPEEEASHNGQRRGLPKAVCMNGTEAAQLSTKSRAEGRAPNPARKACSASSKIRRLSACKQQ [L190Y]	0.0792 ± 0.094
MEVVDPQQLGMFTEGELMSVGMDTFIHRIDSTEVIYQPRRKRAKLIGKYLMGDLLGEGSYGKVKEVLDSETLCRRAVKILKKKKLRRIPNGEANVKKEIQLLRRLRHKNVIQLVDVLYNEEKQKMYMVMEYCVCGMQEMLDSVPEKRFPVCQAHGYFCQLIDGLEYLHSQGIVHKDIKPGNLLLTTGGTLKISDLGVAEALHPFAADDTCRTSQGSPAFQPPEIANGLDTFSGFKVDIWSAGVTLYNITTGLYPFEGDNIYKLFENIGKGSYAIPGDCGPPLSDLLKGMLEYEQAKRFSIRQIRQHSWFRKKHPPAEAPVPIPPSPDTKDRWRSMTVVPYLEDLHGADEDEDLFDIEDDIIYTQDFTVPGQVPEEEASHNGQRRGLPKAVCMNGTEAAQLSTKSRAEGRAPNPARKACSASSKIRRLSACKQQ [P294Q]	1.39 ± 0.23
MEVVDPQQLGMFTEGELMSVGMDTFIHRIDSTEVIYQPRRKRAKLIGKYLMGDLLGEGSYGKVKEVLDSETLCRRAVKILKKKKLRRIPNGEANVKKEIQLLRRLRHKNVIQLVDVLYNEEKQKMYMVMEYCVCGMQEMLDSVPEKRFPVCQAHGYFCQLIDGLEYLHSQGIVHKDIKPGNLLLTTGGTLKISDLGVAEALHPFAADDTCRASQGSPAFQPPEIANGLDTFSGFKVDIWSAGVTLYNITTGLYPFEGDNIYKLFENIGKGSYAIPGDCGPPLSDLLKGMLEYEPAKRFSIRQIRQHSWFRKKHPPAEAPVPIPPSPDTKDRWRSMTVVPYLEDLHGADEDEDLFDIEDDIIYTQDFTVPGQVPEEEASHNGQRRGLPKAVCMNGTEAAQLSTKSRAEGRAPNPARKACSASSKIRRLSACKQQ [T212A]	1.41 ± 0.17
MEVVDPQQLGMFTEGELMSVGMDTFIHRIDSTEVIYQPRRKRAKLIGKYLMGDLLGEGSYGKVKEVLDSETLCRRAVKILKKKKLRRIPNGEANVKKEIQLLRRLRHKNVIQLVDVLYNEEKQKMYMVMEYCVCGMQEMLDSVPEKRFPVCQAHGYFCQLIDGLEYLHSQGIVHKDIKPGNLLLTTGGTLKISDLGVAEALHPFAADDTCRTSQGSPAFQPPEIANGLDTFSGFKVDIWSAGVTLYNITTGLYPFEGDNIYKLFENIGKGSYAIPGDCGPPLSDLLKGMLEYEPAKRFSIRQIRQHSWFRKKHPPAEAPVPIPPSPDTKDRWRSMTVVPYLEDLHGADEDEDLFDIEDDIIYTQDFTVPGQVPEEEASHNGQRRGLPKAVCMNGTEAAQLSTKSRAEGRAPNPARKACSASYKIRRLSACKQQ [S422Y]	1.54 ± 0.15
MEVVDPQQLGMFTEGELMSVGMDTFIHRIDSTEVIYQPRRKRAKLIGKYLMGDLLGEGSYGKVKEVLDSETLCRRAVKILKKKKLRRIPNGEANVKKEIQLLRRLRHKNVIQLVDVLYNEEKQKMYMVMEYCVCGMQEMLDSVPEKRFPVCQAHGYFCQLIDGLEYLHSQGIVHKDIKPGNLLLTTGGTLKISDLGVAEALHPFAADDTCRTSQGSPAFQPPEIANGLDTFSGFKVDIWSAGVTLYNIGTGLYPFEGDNIYKLFENIGKGSYAIPGDCGPPLSDLLKGMLEYEPAKRFSIRQIRQHSWFRKKHPPAEAPVPIPPSPDTKDRWRSMTVVPYLEDLHGADEDEDLFDIEDDIIYTQDFTVPGQVPEEEASHNGQRRGLPKAVCMNGTEAAQLSTKSRAEGRAPNPARKACSASSKIRRLSACKQQ [T249G]	0.293 ± 0.1
